Measurements as given in the Immune Epitope Database (IEDB).
Values belong to the sequence of their own block, whether it stands above or below them.

Key:
[1] = target: HLA-A*24:02; test: IEDB peptide-MHC binding, purified MHC/competitive/fluorescence; filed as Kd, often an IC50 or EC50 that approximates it; ≥ and ≤ were set here for values at or beyond the usual limits of such assays
[2] = target: HLA-A*02:01; test: as above
[3] = target: HLA-A*02:06; test: as above
[4] = target: HLA-B*27:05; test: as above
[5] = target: HLA-A*02:17; test: IEDB peptide-MHC binding, purified MHC/competitive/radioactivity; filed as Kd, often an IC50 or EC50 that approximates it; ≥ and ≤ were set here for values at or beyond the usual limits of such assays
[6] = target: HLA-A*02:01; test: as above
[7] = target: HLA-A*02:03; test: IEDB peptide-MHC binding, purified MHC/competitive/fluorescence; filed as Kd, often an IC50 or EC50 that approximates it; ≥ and ≤ were set here for values at or beyond the usual limits of such assays; settings: source organism: Human immunodeficiency virus 1
[8] = target: HLA-A*11:01; test: as above; settings: source organism: Human immunodeficiency virus 1
[9] = target: HLA-A*30:01; test: as above
[10] = target: HLA-B*57:01; test: as above; settings: source organism: Human immunodeficiency virus 1
[11] = target: HLA-B*15:17; test: as above; settings: source organism: Human immunodeficiency virus 1
[12] = target: HLA-A*01:01; test: as above; settings: source organism: Human immunodeficiency virus 1
[13] = target: HLA-B*15:01; test: as above; settings: source organism: Human immunodeficiency virus 1
[14] = target: HLA-B*18:01; test: as above; settings: source organism: Human immunodeficiency virus 1
[15] = target: HLA-A*02:03; test: IEDB peptide-MHC binding, purified MHC/competitive/radioactivity; filed as Kd, often an IC50 or EC50 that approximates it; ≥ and ≤ were set here for values at or beyond the usual limits of such assays; settings: source organism: Dengue virus 2 Jamaica/1409/1983
[16] = target: HLA-A*02:06; test: as above; settings: source organism: Dengue virus 2 Jamaica/1409/1983
[17] = target: HLA-A*02:11; test: IEDB peptide-MHC binding, purified MHC/competitive/fluorescence; filed as Kd, often an IC50 or EC50 that approximates it; ≥ and ≤ were set here for values at or beyond the usual limits of such assays; settings: source organism: Pseudomonas putida F1
[18] = target: HLA-A*02:01; test: IEDB peptide-MHC binding, purified MHC/direct/fluorescence; filed as Kd, often an IC50 or EC50 that approximates it; ≥ and ≤ were set here for values at or beyond the usual limits of such assays
[19] = target: HLA-A*03:01; test: as above
[20] = target: HLA-A*11:01; test: as above
[21] = target: HLA-A*69:01; test: as above
[22] = target: HLA-B*58:01; test: as above
[23] = target: HLA-B*40:01; test: as above
[24] = target: HLA-A*01:01; test: as above
[25] = target: HLA-B*15:01; test: as above
[26] = target: HLA-A*24:03; test: as above
[27] = target: HLA-A*26:01; test: as above
[28] = target: HLA-B*07:02; test: as above
[29] = target: HLA-A*31:01; test: as above
[30] = target: HLA-B*27:05; test: as above
[31] = target: HLA-B*08:01; test: as above
[32] = target: HLA-A*30:01; test: as above
[33] = target: HLA-B*35:01; test: as above
[34] = target: HLA-B*08:01; test: IEDB peptide-MHC binding, purified MHC/competitive/fluorescence; filed as Kd, often an IC50 or EC50 that approximates it; ≥ and ≤ were set here for values at or beyond the usual limits of such assays; settings: source organism: Mycobacterium tuberculosis CDC1551
[35] = target: HLA-B*46:01; test: IEDB peptide-MHC binding, purified MHC/direct/fluorescence; filed as Kd, often an IC50 or EC50 that approximates it; ≥ and ≤ were set here for values at or beyond the usual limits of such assays; settings: source organism: Mycobacterium tuberculosis
[36] = target: HLA-B*15:09; test: as above; settings: source organism: Mycobacterium tuberculosis CDC1551
[37] = target: HLA-B*48:01; test: as above; settings: source organism: Mycobacterium tuberculosis
[38] = target: HLA-B*57:01; test: as above; settings: source organism: Mycobacterium tuberculosis
[39] = target: HLA-B*15:17; test: as above; settings: source organism: Mycobacterium tuberculosis
[40] = target: HLA-B*08:02; test: as above; settings: source organism: Mycobacterium tuberculosis CDC1551
[41] = target: HLA-B*51:01; test: as above; settings: source organism: Mycobacterium tuberculosis
[42] = target: HLA-B*18:01; test: as above; settings: source organism: Mycobacterium tuberculosis
[43] = source organism: Shigella boydii Sb227
[44] = source organism: Dengue virus 2 Jamaica/1409/1983
[45] = source organism: Human immunodeficiency virus 1
[46] = source organism: Pseudomonas putida
[47] = source organism: Corynebacterium glutamicum
[48] = source organism: Dengue virus 4 Philippines/H241/1956
[49] = source organism: Mycobacterium tuberculosis CDC1551
[50] = source organism: Mycobacterium tuberculosis
[51] = source organism: Giardia lamblia ATCC 50803
[52] = source organism: Dengue virus 1 Singapore/S275/1990
[53] = source organism: Escherichia coli

Sequence: EYARQVQMI
Kd ([1]; source organism: Vibrio vulnificus YJ016): ≤ 1 nM

Sequence: GLDDSALDA
Kd [2, 43]: 402 nM | Kd [3, 43]: 2100 nM

Sequence: GRADTKILF
Kd ([4]; source organism: Influenza A virus (A/swine/Hong Kong/4/1976(H3N2))): 74.1 nM

Sequence: RLLTKPWDV
Kd [5, 44]: 1430 nM | Kd [6, 44]: 27.6 nM

Sequence: KSLYNTVAVLY
Kd [7]: ≥ 20000 nM | Kd [8]: ≥ 20000 nM | Kd [9, 45]: 4780 nM | Kd [10]: 4820 nM | Kd [11]: 484 nM | Kd [12]: 4460 nM | Kd [13]: ≥ 20000 nM | Kd [14]: 275 nM | Kd [3, 45]: 300 nM

Sequence: KLAEAIFKL
Kd [15]: 8.68 nM | Kd [5, 44]: 19.1 nM | Kd [16]: 14.8 nM

Kd ([1]; source organism: Escherichia coli E22): ≤ 0.1 nM
Sequence: IYLRRYFEI

Kd [17]: ≤ 1 nM | Kd [18, 46]: 409 nM | Kd [19, 46]: ≥ 20000 nM | Kd [20, 46]: ≥ 20000 nM | Kd [21, 46]: 712 nM | Kd [22, 46]: ≥ 20000 nM | Kd [23, 46]: ≥ 20000 nM | Kd [24, 46]: ≥ 20000 nM | Kd [25, 46]: 3700 nM | Kd [26, 46]: ≥ 20000 nM | Kd [27, 46]: ≥ 20000 nM | Kd [28, 46]: 330 nM | Kd [29, 46]: 991 nM | Kd [30, 46]: ≥ 20000 nM | Kd [31, 46]: 7120 nM
Sequence: VMTEGRHAV

Kd [18, 47]: ≥ 20000 nM | Kd [19, 47]: ≥ 20000 nM | Kd [20, 47]: ≥ 20000 nM | Kd [32, 47]: ≥ 10000 nM | Kd [21, 47]: ≥ 20000 nM | Kd [22, 47]: ≥ 20000 nM | Kd [23, 47]: ≥ 20000 nM | Kd [24, 47]: ≥ 20000 nM | Kd [25, 47]: ≥ 20000 nM | Kd [26, 47]: 13100 nM | Kd [27, 47]: ≥ 20000 nM | Kd [28, 47]: 53.6 nM | Kd [29, 47]: ≥ 20000 nM | Kd [33, 47]: 893 nM | Kd [30, 47]: ≥ 20000 nM | Kd [31, 47]: 2720 nM
Sequence: IVAWTRTAT

Sequence: DLMEFIDGI
Kd [5, 48]: 1970 nM | Kd [6, 48]: 74.2 nM

Kd ([4]; source organism: Escherichia coli str. K-12 substr. MG1655): 285 nM
Sequence: GRQAPTADV

Sequence: ALRSRWRAL
Kd [2, 49]: ≥ 20000 nM | Kd [9, 49]: 132 nM | Kd [34]: 14 nM | Kd [3, 49]: 556 nM | Kd [19, 50]: ≥ 20000 nM | Kd [35]: ≥ 20000 nM | Kd [20, 50]: ≥ 20000 nM | Kd [36]: ≥ 20000 nM | Kd [21, 50]: ≥ 20000 nM | Kd [37]: ≥ 20000 nM | Kd [38]: ≥ 20000 nM | Kd [39]: ≥ 20000 nM | Kd [22, 50]: ≥ 20000 nM | Kd [23, 50]: ≥ 20000 nM | Kd [24, 50]: ≥ 20000 nM | Kd [25, 50]: 504 nM | Kd [40]: ≥ 20000 nM | Kd [28, 50]: 59.5 nM | Kd [41]: ≥ 20000 nM | Kd [29, 50]: ≥ 20000 nM | Kd [42]: ≥ 20000 nM | Kd [30, 50]: ≥ 20000 nM

Sequence: RQVCFFSAT
Kd [2, 51]: 3270 nM | Kd [3, 51]: 6.3 nM

Sequence: PYPYLFYKF
Kd ([1]; source organism: Vibrio cholerae B33): ≤ 0.1 nM

Sequence: RLITANPIV
Kd [5, 52]: 121 nM | Kd [6, 52]: 61.3 nM

Sequence: IYNTVVLTI
Kd ([1]; source organism: Vibrio parahaemolyticus AQ3810): 0.4 nM

Kd [18, 53]: ≥ 20000 nM | Kd [19, 53]: ≥ 20000 nM | Kd [20, 53]: ≥ 20000 nM | Kd [32, 53]: ≥ 10000 nM | Kd [21, 53]: ≥ 20000 nM | Kd [22, 53]: ≥ 20000 nM | Kd [23, 53]: ≥ 20000 nM | Kd [24, 53]: ≥ 20000 nM | Kd [25, 53]: 3730 nM | Kd [26, 53]: ≥ 5000 nM | Kd [27, 53]: ≥ 20000 nM | Kd [28, 53]: 27.6 nM | Kd [29, 53]: ≥ 20000 nM | Kd [33, 53]: 25.6 nM | Kd [30, 53]: ≥ 20000 nM | Kd [31, 53]: 849 nM
Sequence: LAAPCRNAL
